{"source": "patent US20050265970", "proteins": {"B1": {"name": "FLAG-MKK7 (FLAG-tagged JNKK2) immunoprecipitated from 293 cells (protein)", "chain": "MAASSLEQKLSRLEAKLKQENREARRRIDLNLDISPQRPRPTLQLPLANDGGSRSPSSESSPQHPTPPARPRHMLGLPSTLFTPRSMESIEIDQKLQEIMKQTGYLTIGGQRYQAEINDLENLGEMGSGTCGQVWKMRFRKTGHVIAVKQMRRSGNKEENKRILMDLDVVLKSHDCPYIVQCFGTFITNTDVFIAMELMGTCAEKLKKRMQGPIPERILGKMTVAIVKALYYLKEKHGVIHRDVKPSNILLDERGQIKLCDFGISGRLVDSKAKTRSAGCAAYMAPERIDPPDPTKPDYDIRADVWSLGISLVELATGQFPYKNCKTDFEVLTKVLQEEPPLLPGHMGFSGDFQSFVKDCLTKDHRKRPKYNKLLEHSFIKRYETLEVDVASWFKDVMAKTESPRTSGVLSQPHLPFFR"}}, "key": {"[1]": {"target": "Gadd45β-derived peptide 8 (pure synthetic peptide, sequence in FIG. 37C)"}, "[2]": {"target": "T1, GST-Gadd45β (full-length murine Gadd45β directly fused to GST), P22339", "T1 chain": "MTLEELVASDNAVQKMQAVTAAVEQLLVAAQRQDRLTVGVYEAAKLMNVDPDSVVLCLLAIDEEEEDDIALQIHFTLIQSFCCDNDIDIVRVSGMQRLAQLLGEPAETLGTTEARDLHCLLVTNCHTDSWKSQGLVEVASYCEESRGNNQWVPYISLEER"}, "[3]": {"target": "T2, His6-Gadd45β (full-length human Gadd45β purified from E. coli), O75293", "T2 chain": "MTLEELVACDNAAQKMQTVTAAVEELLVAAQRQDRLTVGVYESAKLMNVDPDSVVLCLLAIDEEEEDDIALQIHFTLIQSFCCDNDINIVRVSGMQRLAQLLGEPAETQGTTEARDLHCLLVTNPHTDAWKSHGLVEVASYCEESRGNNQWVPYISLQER"}, "[4]": {"target": "Gadd45β-derived peptide 2 (pure synthetic peptide, sequence in FIG. 37C)"}}}
{"protein": "B1", "values": [{"measurement": "MKK7 kinase assay with GST-JNK1 substrate", "setting": "[1]", "value": "the amino acid regions contained in the overlapping, Gadd45β-derived peptides 2 and 8 are sufficient to recapitulate most of the inhibitory activity of Gadd45β on MKK7"}, {"measurement": "GST-JNK1 phosphorylation by MKK7 (kinase assay)", "setting": "[2]", "value": "Both Gadd45β polypeptides, but neither GST nor His6-EF3, blocked GST-JNK1 phosphorylation by MKK7, in a dose-dependent manner"}, {"measurement": "JNKK2 kinase activity in vitro (phosphorylation of GST-JNK1)", "setting": "[2]", "value": "both GST-Gadd45β and His6-Gadd45β effectively suppressed JNKK2 activity, in vitro, even at the lowest concentrations that were tested"}, {"measurement": "GST-JNK1 phosphorylation by MKK7 (kinase assay)", "setting": "[3]", "value": "Both Gadd45β polypeptides, but neither GST nor His6-EF3, blocked GST-JNK1 phosphorylation by MKK7, in a dose-dependent manner"}, {"measurement": "JNKK2 kinase activity in vitro (phosphorylation of GST-JNK1)", "setting": "[3]", "value": "both GST-Gadd45β and His6-Gadd45β effectively suppressed JNKK2 activity, in vitro, even at the lowest concentrations that were tested"}, {"measurement": "MKK7 kinase assay with GST-JNK1 substrate", "setting": "[4]", "value": "the amino acid regions contained in the overlapping, Gadd45β-derived peptides 2 and 8 are sufficient to recapitulate most of the inhibitory activity of Gadd45β on MKK7"}]}
